Key:
Assay in all cases: cell-based or functional assay
[1] = target: HIV-1 Env of pseudovirus 7030102001E5(Rev-) (HIV-1)
[2] = target: HIV-1 Env of pseudovirus CNE58 (HIV-1)
[3] = target: HIV-1 Env of pseudovirus TRO.11 (HIV-1)
[4] = target: HIV-1 Env of pseudovirus 235-47 (HIV-1)
[5] = target: HIV-1 Env of pseudovirus Ce704809221_1B3 (HIV-1)
[6] = target: HIV-1 Env of pseudovirus 1054_07_TC4_1499 (HIV-1)
[7] = target: HIV-1 Env of pseudovirus Ce2060_G9 (HIV-1)
[8] = target: HIV-1 Env of pseudovirus C2101.c01 (HIV-1)
[9] = target: HIV-1 Env of pseudovirus HIV-16845-2.22 (HIV-1)
[10] = target: HIV-1 Env of pseudovirus 249M B10 (HIV-1)
[11] = target: HIV-1 Env of pseudovirus WITO4160.33 (HIV-1)
[12] = target: HIV-1 Env of pseudovirus 3016.v5.c45 (HIV-1)
[13] = target: HIV-1 Env of pseudovirus Du172.17 (HIV-1)
[14] = target: HIV-1 Env of pseudovirus 0815.v3.c3 (HIV-1)
[15] = target: HIV-1 Env of pseudovirus CAP45.2.00.G3 (HIV-1)
[16] = target: HIV-1 Env of pseudovirus 6535.3 (HIV-1)
[17] = target: HIV-1 Env of pseudovirus 6244_13_B5_4576 (HIV-1)
[18] = target: HIV-1 Env of pseudovirus 191084 B7-19 (HIV-1)
[19] = target: HIV-1 Env of pseudovirus RHPA4259.7 (HIV-1)
[20] = target: HIV-1 Env of pseudovirus QH0692.42 (HIV-1)
[21] = target: HIV-1 Env of pseudovirus C4118.c09 (HIV-1)
[22] = target: HIV-1 Env of pseudovirus Ce1172_H1 (HIV-1)
[23] = target: HIV-1 Env of pseudovirus X2088_c9 (HIV-1)
[24] = target: HIV-1 Env of pseudovirus R1166.c01 (HIV-1)
[25] = target: HIV-1 Env of pseudovirus 1394C9G1(Rev-) (HIV-1)
[26] = target: HIV-1 Env of pseudovirus R3265.c06 (HIV-1)
[27] = target: HIV-1 Env of pseudovirus Q259.d2.17 (HIV-1)
[28] = target: HIV-1 Env of pseudovirus CNE17 (HIV-1)
[29] = target: HIV-1 Env of pseudovirus BJOX009000.02.4 (HIV-1)
[30] = target: HIV-1 Env of pseudovirus 1006_11_C3_1601 (HIV-1)
[31] = target: HIV-1 Env of pseudovirus BF1266.431a (HIV-1)
[32] = target: HIV-1 Env of pseudovirus A07412M1.vrc12 (HIV-1)
[33] = target: HIV-1 Env of pseudovirus 62357_14_D3_4589 (HIV-1)
[34] = target: HIV-1 Env of pseudovirus WEAU_d15_410_787 (HIV-1)
[35] = target: HIV-1 Env of pseudovirus 191955_A11 (HIV-1)
[36] = target: HIV-1 Env of pseudovirus CNE30 (HIV-1)
[37] = target: HIV-1 Env of pseudovirus T250-4 (HIV-1)

PGDM1400 (antibody)
IC50 [1]: > 50 µg/mL | IC80 [1]: > 50 µg/mL | IC50 [2]: 0.004 µg/mL | IC80 [2]: 0.014 µg/mL | IC50 [3]: 0.283 µg/mL | IC80 [3]: 1.38 µg/mL | IC50, titer in TZM.bl cells [4]: 0.005 µg/mL | IC80, titer in TZM.bl cells [4]: 0.032 µg/mL | IC50 [5]: 0.28 µg/mL | IC80 [5]: 1.1 µg/mL | IC50 [6]: > 50 µg/mL | IC80 [6]: > 50 µg/mL | IC50 [7]: 0.001 µg/mL | IC80 [7]: 0.007 µg/mL | IC50, titer in TZM.bl cells [8]: 0.006 µg/mL | IC80, titer in TZM.bl cells [8]: 0.021 µg/mL | IC50 [9]: > 50 µg/mL | IC80 [9]: > 50 µg/mL | IC50 [10]: 0.039 µg/mL | IC80 [10]: 0.786 µg/mL | IC50 [11]: < 0.001 µg/mL | IC80 [11]: 0.008 µg/mL | IC50, titer in TZM.bl cells [12]: > 50 µg/mL | IC80, titer in TZM.bl cells [12]: > 50 µg/mL | IC50 [13]: 5.18 µg/mL | IC80 [13]: 22 µg/mL | IC50, titer in TZM.bl cells [14]: > 50 µg/mL | IC80, titer in TZM.bl cells [14]: > 50 µg/mL | IC50 [15]: < 0.001 µg/mL | IC80 [15]: 0.002 µg/mL | IC50 [16]: > 50 µg/mL | IC80 [16]: > 50 µg/mL | IC50 [17]: > 50 µg/mL | IC80 [17]: > 50 µg/mL | IC50 [18]: < 0.001 µg/mL | IC80 [18]: 0.007 µg/mL | IC50 [19]: 0.447 µg/mL | IC80 [19]: 2.19 µg/mL | IC50 [20]: > 50 µg/mL | IC80 [20]: > 50 µg/mL | IC50, titer in TZM.bl cells [21]: 0.002 µg/mL | IC80, titer in TZM.bl cells [21]: 0.005 µg/mL | IC50 [22]: 0.021 µg/mL | IC80 [22]: 0.06 µg/mL | IC50, titer in TZM.bl cells [23]: > 50 µg/mL | IC80, titer in TZM.bl cells [23]: > 50 µg/mL | IC50, titer in TZM.bl cells [24]: 1.43 µg/mL | IC80, titer in TZM.bl cells [24]: 6.92 µg/mL | IC50 [25]: < 0.001 µg/mL | IC80 [25]: 0.004 µg/mL | IC50, titer in TZM.bl cells [26]: 0.013 µg/mL | IC80, titer in TZM.bl cells [26]: 0.041 µg/mL | IC50 [27]: 0.166 µg/mL | IC80 [27]: > 50 µg/mL | IC50 [28]: 0.007 µg/mL | IC80 [28]: 0.021 µg/mL | IC50, titer in TZM.bl cells [29]: 0.443 µg/mL | IC80, titer in TZM.bl cells [29]: 1.29 µg/mL | IC50 [30]: 4.32 µg/mL | IC80 [30]: > 50 µg/mL | IC50 [31]: 0.003 µg/mL | IC80 [31]: 0.011 µg/mL | IC50, titer in TZM.bl cells [32]: 0.032 µg/mL | IC80, titer in TZM.bl cells [32]: 0.127 µg/mL | IC50 [33]: > 50 µg/mL | IC80 [33]: > 50 µg/mL | IC50 [34]: 0.103 µg/mL | IC80 [34]: 1.37 µg/mL | IC50 [35]: 0.001 µg/mL | IC80 [35]: 0.021 µg/mL | IC50 [36]: > 50 µg/mL | IC80 [36]: > 50 µg/mL | IC50 [37]: < 0.001 µg/mL | IC80 [37]: < 0.001 µg/mL

Source: patent publication US20230002480A1
